From patent US20240343803A1 (SHANDONG SIMCERE BIOPHARMACEUTICAL, published 2024)

T1: human PVRIG on FlpinCHO-PVRIG cells (human, UniProt Q6DKI7 41-326)
T1 construct: whole, on cells; also called FlpinCHO-hPVRIG; FlpinCHO-human PVRIG
T1 sequence (looked up): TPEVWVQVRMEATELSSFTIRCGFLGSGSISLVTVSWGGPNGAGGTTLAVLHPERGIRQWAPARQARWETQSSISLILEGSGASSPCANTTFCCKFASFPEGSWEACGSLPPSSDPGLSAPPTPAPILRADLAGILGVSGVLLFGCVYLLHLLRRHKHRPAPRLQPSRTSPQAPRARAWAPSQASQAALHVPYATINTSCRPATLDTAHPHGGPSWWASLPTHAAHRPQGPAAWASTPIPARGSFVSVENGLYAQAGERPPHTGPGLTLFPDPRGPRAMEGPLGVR

T2: human PVRIG-mFc protein (Acro, PVG-H5253) (human, UniProt Q6DKI7 41-171, limits assumed)
T2 construct: bought reagent; also called PVRIG-ECD-mFc
T2 sequence (looked up): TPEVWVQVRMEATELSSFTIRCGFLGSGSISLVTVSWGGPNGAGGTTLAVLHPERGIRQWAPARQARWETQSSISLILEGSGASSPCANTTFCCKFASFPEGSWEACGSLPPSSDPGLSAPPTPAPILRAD

T3: human PVRIG-his (AcroBiosystems, Cat NO. PVG-H52H4) (human, UniProt Q6DKI7 41-171, limits assumed)
T3 construct: treated as the same protein; also called human PVRIG-His protein; Human PVRIG-His, Acro C227P1-9ARF1-T4
T3 sequence (looked up): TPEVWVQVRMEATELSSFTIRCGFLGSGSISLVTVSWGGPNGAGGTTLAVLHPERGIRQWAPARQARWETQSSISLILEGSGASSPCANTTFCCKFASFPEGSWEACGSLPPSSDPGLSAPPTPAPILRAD


Assays:
[1] = biological target: T1, human PVRIG on FlpinCHO-PVRIG cells; experiment: FACS, FlpinCHO-PVRIG cells
Experimental: After discarding the cell culture medium, the cells were rinsed with PBS and digested for 8-10 minutes by adding 1 mL Versene (Gibico, 15040-066). The Ham's F12 (Gibico, 21127-022) complete medium containing 10% FBS was then added to terminate the digestion and acquire cell suspension. After counting with a cell counter (Beckman Coulter, Vi-CELL), an appropriate amount of cell suspension was centrifuged at 350×g to remove the supernatant, washed twice with PBS, stained with Zombie violet (Biolegend, 423114) and incubated at room temperature for 20 minutes. After incubation, the cells were added with staining buffer (2% FBS+PBS) to stop staining, centrifuged at 350×g to remove the supernatant, washed twice and resuspended with staining buffer to a density of 2×10⁶ cells/mL. The cells were plated into a 96-well plate (50 μL of cell suspension per well) for further use. The antibodies were diluted from the highest concentration of 46 nM (two-fold concentration) with staining buffer by 3.3-fold serial dilution. The diluted antibodies were added to the well containing 50 μL of cell suspension. The plate was placed on a microplate shaker at 400 rpm for 1 minute to fully mix the antibodies and cells, and then incubated at 4° C. for 30 minutes. After the incubation, the cells were washed twice with staining buffer (200 μL per well) and centrifuged at 350×g for 5 minutes to discard the supernatant. The PE goat anti-human IgG Fc antibody (ebioscience, 12-4998-82) was diluted 250 times with staining buffer, added into the washed wells (100 μL per well), mixed well, and stained at 4° C. for 30 minutes. After staining, the cells were washed twice with staining buffer, finally resuspended with 200 μL staining buffer and analyzed by flow cytometry (BD, Canto II). The stronger the signal, the stronger the ability of the antibodies binds to PVRIG. An antibody binding curve was drawn with concentration of antibodies as the abscissa and the corresponding Mean Fluorescence Intensity (MFI) as the ordinate. The AUC value of the curve was calculated by using a Four Parameter Logistic Fit (GraphPadPrism9).

[2] = biological target: T2, human PVRIG-mFc protein (Acro, …); experiment: competition FACS; blocked: human PVRIG-mFc binding to CHO-K1-CD112 cells
Experimental: After incubation, the cells were added with staining buffer (2% FBS+PBS) to stop staining, centrifuged at 350×g to remove the supernatant, washed twice and resuspended with staining buffer to a density of 1×10⁶ cells/mL. The cells were plated into a 96-well plate (50 μL of cell suspension per well) for further use. A working solution of human PVRIG-mFc protein (Acro, PVG-H5253) prepared with staining buffer, 1 μg/mL (four-fold concentration), was added into a 96-well plate (50 μL PVRIG-mFc working solution per well). […] The diluted antibodies were added to the well containing 50 μL of PVRIG-mFc. The plate was placed on a microplate shaker at 400 rpm for 1 minute to fully mix the antibodies and PVRIG-mFc proteins, and then incubated at 4° C. for 30 minutes. After the incubation, the cell suspension prepared above (100 μL) was added into the wells, gently mixed with the pipette tip and incubated at 4° C. for 30 minutes. After the incubation, the cells were washed twice with staining buffer (200 μL per well) and centrifuged at 350×g for 5 minutes to discard the supernatant. The PE goat anti-mouse IgG Fc antibody (Biolegend, 405337) was diluted 250 times with staining buffer, added into the washed wells (100 μL per well), mixed well, and stained at 4° C. for 30 minutes. After staining, the cells were washed twice with staining buffer, finally resuspended with 200 μL staining buffer and analyzed by flow cytometry (BD, Canto II). The weaker the fluorescence signal, the stronger the ability of the antibodies blocks the binding of CHO-K1 human CD112 cells to the PVRIG-mFc protein. An antibody binding curve was drawn with concentration of antibodies as the abscissa and the corresponding Mean Fluorescence Intensity (MFI) as the ordinate. The IC50 value of the antibodies and the AUC value of the binding curve were calculated by using a Four Parameter Logistic Fit (GraphPadPrism9). The smaller the IC50 value and AUC value, the stronger the ability of the antibodies competes with CHO-K1-CD112 cells to bind to human PVRIG-mFc protein.

[3] = biological target: T3, human PVRIG-his (AcroBiosystems, Cat …); experiment: competition ELISA on coated human PVRIG-his; blocked ligand human PVRL2-mFc
Experimental: The ELISA plate was pre-coated with 100 μL/well of 0.5 μg/mL human PVRIG-his protein (AcroBiosystems, Cat NO. PVG-H52H4). The tested anti-PVRIG antibodies were diluted from the highest concentration of 16 nM (two-fold concentration). The diluted antibodies were mixed with 18 ng/ml human PVRL2-mFc (AcroBiosystems, Cat NO. CD2-H5257) in equal volume, added into the plate (100 μL/well), and incubated with shaking at room temperature for 2.0 hours. […] A HRP substrate, TMB (Thermo, Cat NO. 34029) was added into wells after washing the plate again for color development. After adding a termination solution to terminate the reaction, the absorbance value was read by a microplate reader (MD i3×). An inhibiting curve was drawn with concentration of antibodies as the abscissa and the corresponding OD value as the ordinate. The IC50 value was calculated by using a Four Parameter Logistic Fit (GraphPadPrism9). The smaller the IC50 value, the stronger the ability of the antibodies inhibits the binding between PVRIG and PVRL2. The positive and negative controls are the same as in Example 8.

| EC50 (read off the curve) [1] | IC50 (read off the curve) [2] | IC50 (read off the curve) [3] | Binder |
| --- | --- | --- | --- |
| ~0.1 nM | ~0.9 nM | ~0.8 nM | PVRIG-A11 (VHH, tested as VHH-hinge-CH2-CH3 (human IgG1-Fc); not shown: human IgG1 hinge-CH2-CH3) VHH: QLQLVESGGGLVQPGGSLRLSCAASGFTDDYYAIGWFRQAPGKEREGVSCISGSGGSTNYEDSVKGRFAISRDNAKNMVYLQMNDLKPEDTAVYYCAADPFWSAPCTGHNDRYFDVWGQGTLVTVSS |
| ~0.3 nM | ~1 nM | ~0.5 nM | PVRIG-A117 (VHH, tested as VHH-hinge-CH2-CH3 (human IgG1-Fc); not shown: human IgG1 hinge-CH2-CH3) VHH: EVQVVESGGGLVQAGGSLRLSCTASEHIYDLYIMGWYRQAPGKDRELVATITYTGSIYIADSVKDRFTISRGNAKNTVSLQMSGLKPEDTAVYYCNADPSGLGRKLYWGQGTQVTVSS |
